The target of test [1] is T1, His-tagged human TNFR2 (Sino Biological, Cat #10417-H08H) (human, UniProt P20333 23-257).
T1 construct: Bought reagent, analyte in BLI; also called recombinant human TNFR2; not shown: His tag
T1 sequence (looked up): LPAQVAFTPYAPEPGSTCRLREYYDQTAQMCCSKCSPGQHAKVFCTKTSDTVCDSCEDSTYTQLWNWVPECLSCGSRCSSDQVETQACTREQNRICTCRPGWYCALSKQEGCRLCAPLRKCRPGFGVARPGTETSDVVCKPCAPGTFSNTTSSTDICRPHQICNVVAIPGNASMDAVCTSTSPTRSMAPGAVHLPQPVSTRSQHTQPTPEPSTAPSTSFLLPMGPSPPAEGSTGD
The test is described as follows: BLI (Octet RED 96), antibody on Fc capture tips, His-tagged TNFR2 as analyte, 1:1 global fit.

The target in test [2] is T2, cynomolgus monkey TNFR2 expressed on the cell surface of 293T cells (cynomolgus monkey, UniProt P20333 23-283 (human entry)).
T2 construct: the entry ends shortly after the transmembrane stretch and includes the signal peptide; also called CynoTNFR2; cynomolgus TNFR2 on cell surface
T2 chain: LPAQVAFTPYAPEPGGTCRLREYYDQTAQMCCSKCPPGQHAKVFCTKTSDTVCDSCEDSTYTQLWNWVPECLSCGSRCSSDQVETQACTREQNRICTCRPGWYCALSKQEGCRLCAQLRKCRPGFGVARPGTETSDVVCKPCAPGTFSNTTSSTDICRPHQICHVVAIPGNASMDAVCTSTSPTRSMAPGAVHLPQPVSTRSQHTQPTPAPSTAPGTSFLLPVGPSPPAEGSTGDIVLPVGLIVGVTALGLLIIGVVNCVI
The test is described as follows: flow cytometry on 293T cells expressing cynomolgus TNFR2; left panel; unit from the axis. (In general: A flow cytometer gives signals particle by particle.)

B1: humanized antibody hu3-E (Hu3-H3/Hu3-L1) (antibody, human IgG1, kappa, V domains shown)
VH: QIQLVQSGAEVKKPGASVKVSCKASGYTFTTYGMSWVRQAPGQGLEWMGWIHTYSGVPTYADDFKGRFAFTLDTSTSTAYMELRSLRSDDTAVYYCARGLYGVDYWGQGTLVTVSS
VL: EIVMTQSPATLSLSPGERATLSCKASENVVTYVSWYQQKPGQAPRLLIYGASNRYTGIPARFSGSGSATDFTLTISSLQPEDFAVYYCGQSYTYPYTFGQGTKLEIKR
notes: Humanized form of 43B7A4, human IgG1/kappa
Turning to B1, in test [1], the dissociation constant Kd turned out to be 5.32 nM, the koff came to 0.00192 s⁻¹ and the on-rate (kon) was 361000 M⁻¹ s⁻¹. In addition, the response in test [2] was half-maximal at 0.671 nM (EC50).

Broadly, the Kd is the concentration at which binding is half-saturated. As a reminder, the koff is the first-order rate constant of dissociation. The kon is a measure of how fast the partners come together. Usually EC50 stands for the concentration at which the effect is half-maximal.

The record behind these values is US11912777 (NANJING LEADS BIOLABS, dated 2024).
